Assay results published in FireProtDB (doi:10.1021/bi000415x).

Conditions: Lithobates pipiens, MES 100 mM, reversible: yes, whole UniProt chain shown; for unfolding free energy / denaturant m value / denaturant midpoint (higher = more stable): 25 °C

B1: Protein P-30 wild type, P22069 (protein)
chain: QDWLTFQKKHITNTRDVDCDNIMSTNLFHCKDKNTFIYSRPEPVKAICKGIIASKNVLTTSEFYLSDCNVTSRPCKYKLKKSTNKFCVTCENQAPVHFVGVGSC
- unfolding free energy (pH 2, Thermal, DSC): 8.84 kcal/mol
- Tm (pH 2, Thermal, DSC): 69.5 °C
- heat capacity change of unfolding (pH 2, Thermal, DSC): 1.48 kcal/mol/K
- unfolding enthalpy (calorimetric) (pH 2, Thermal, DSC): 102 kcal/mol
- unfolding enthalpy (van 't Hoff) (pH 2, Thermal, DSC): 105 kcal/mol
- unfolding free energy (pH 2.5, Thermal, DSC): 9.54 kcal/mol
- Tm (pH 2.5, Thermal, DSC): 72.6 °C
- heat capacity change of unfolding (pH 2.5, Thermal, DSC): 1.31 kcal/mol/K
- unfolding enthalpy (calorimetric) (pH 2.5, Thermal, DSC): 105 kcal/mol
- unfolding enthalpy (van 't Hoff) (pH 2.5, Thermal, DSC): 104 kcal/mol
- unfolding free energy (pH 3, Thermal, DSC): 10.8 kcal/mol
- Tm (pH 3, Thermal, DSC): 76.5 °C
- heat capacity change of unfolding (pH 3, Thermal, DSC): 1.43 kcal/mol/K
- unfolding enthalpy (calorimetric) (pH 3, Thermal, DSC): 112 kcal/mol
- unfolding enthalpy (van 't Hoff) (pH 3, Thermal, DSC): 110 kcal/mol
- unfolding free energy (pH 3.5, Thermal, DSC): 12.2 kcal/mol
- Tm (pH 3.5, Thermal, DSC): 81.6 °C
- heat capacity change of unfolding (pH 3.5, Thermal, DSC): 1.36 kcal/mol/K
- unfolding enthalpy (calorimetric) (pH 3.5, Thermal, DSC): 120 kcal/mol
- unfolding enthalpy (van 't Hoff) (pH 3.5, Thermal, DSC): 118 kcal/mol
- unfolding free energy (pH 4, Thermal, DSC): 13.5 kcal/mol
- Tm (pH 4, Thermal, DSC): 86.8 °C
- heat capacity change of unfolding (pH 4, Thermal, DSC): 1.24 kcal/mol/K
- unfolding enthalpy (calorimetric) (pH 4, Thermal, DSC): 125 kcal/mol
- unfolding enthalpy (van 't Hoff) (pH 4, Thermal, DSC): 127 kcal/mol
- unfolding free energy (pH 5, Thermal, DSC): 14.1 kcal/mol
- Tm (pH 5, Thermal, DSC): 88.3 °C
- heat capacity change of unfolding (pH 5, Thermal, DSC): 1.53 kcal/mol/K
- unfolding enthalpy (calorimetric) (pH 5, Thermal, DSC): 129 kcal/mol
- unfolding enthalpy (van 't Hoff) (pH 5, Thermal, DSC): 132 kcal/mol
- denaturant m value (pH 6, GdnHCl, CD): 3.13 kcal/mol/M
- denaturant midpoint (higher = more stable) (pH 6, GdnHCl, CD): 4.5 M
- unfolding free energy (pH 6, GdnHCl, CD): 14.1 kcal/mol
- denaturant m value (pH 6, GdnHCl, Fluorescence): 3.08 kcal/mol/M
- denaturant midpoint (higher = more stable) (pH 6, GdnHCl, Fluorescence): 4.5 M
- unfolding free energy (pH 6, GdnHCl, Fluorescence): 13.9 kcal/mol
- unfolding free energy (pH 6, Thermal, DSC): 14.2 kcal/mol
- Tm (pH 6, Thermal, DSC): 88.7 °C
- heat capacity change of unfolding (pH 6, Thermal, DSC): 1.31 kcal/mol/K
- unfolding enthalpy (calorimetric) (pH 6, Thermal, DSC): 129 kcal/mol
- unfolding enthalpy (van 't Hoff) (pH 6, Thermal, DSC): 128 kcal/mol
- unfolding free energy (pH 7, Thermal, DSC): 13.7 kcal/mol
- Tm (pH 7, Thermal, DSC): 87.8 °C
- heat capacity change of unfolding (pH 7, Thermal, DSC): 1.43 kcal/mol/K
- unfolding enthalpy (calorimetric) (pH 7, Thermal, DSC): 127 kcal/mol
- unfolding enthalpy (van 't Hoff) (pH 7, Thermal, DSC): 123 kcal/mol
- unfolding free energy (pH 8, Thermal, DSC): 13 kcal/mol
- Tm (pH 8, Thermal, DSC): 85.4 °C
- heat capacity change of unfolding (pH 8, Thermal, DSC): 1.39 kcal/mol/K
- unfolding enthalpy (calorimetric) (pH 8, Thermal, DSC): 123 kcal/mol
- unfolding enthalpy (van 't Hoff) (pH 8, Thermal, DSC): 127 kcal/mol
